Test results published in US8728472B2, “Antibodies that bind selectively to P25 and uses therefor” (The Board of Regents of the University of Texas System, priority 2009, dated 2014).
Entries after “also recorded” stand apart in the source; their conditions may differ.

Tests used:
[1] = biological target: T1, p35 (Mus musculus, UniProt P61809); assay: Immunoblotting and immunostaining for p35; format: binding; details: immunoblot
T1 construct: from tissue; host or cells: striatal homogenates of p25-GFP over-expressing mice
Text: (§1) Cdk5/p25 proteins (FIG. 2A) were co-expressed in Sf9 insect cells from a Baculovirus vector (pBAC4X-1) encoding the genes for the human proteins. […] The proteins were absorbed to a Ni-NTA column, eluted and further purified by FPLC S-sepharose HP column chromatography. Mice received intrasplenic injections of pure Cdk5/p25 conjugated to biodegradable microparticles to optimize antigen presentation. ELISA assays were used to initially screen mice sera for antibody production using pure Cdk5/p25 followed by Western blotting of the pure Cdk5/p25 and striatal cell lysates from a p25 (p25-GFP) over-expressing mouse line (FIG. 2B). When both assays yielded positive results, a hemisplenectomy was performed and B cells were fused with SP2/0-IL6 myeloma cells to make hybridomas. Hybridoma culture supernatants were screened by ELISA, immunoblotting of pure protein (FIG. 2A), and immunohistochemical staining of HEK293T cultured cells transfected with Cdk5, p35, Cdk5/p35, p25, Cdk5/p25, or negative control (blank) eukaryotic expression plasmids (FIG. 2C). Hybridoma lines producing antibodies selective for p25 were re-derived and screens were repeated.
(§2) Abs to p35, DARPP-32 (Nishi et al., 1997), GFAP, and p25 were used to stain rat coronal cryosections (20 μm) from control and stroked hemispheres. […] See Methods for further details.

[2] = biological target: T2, Cdk5/p25 (Homo sapiens, UniProt Q15078); assay: Inhibition of Cdk5/p25 kinase activity by monoclonal antibody; format: biochemical; details: FIG. 4
T2 construct: cleaves p35, thereby removing the first 100 amino acids to produce p25

[3] = test system: p25; assay: Immunoblotting and immunostaining for p25 (p25-GFP lysates, transfected HEK293T cells, ischemic tissue); format: binding
Text: as §1, §2

[4] = biological target: T3, p25 (Rattus norvegicus, UniProt P61810); assay: as above; format: binding; details: compared with commercial p35/p25 Ab
T3 construct: cleaves p35, thereby removing the first 100 amino acids to produce p25; expressed in transfected cells; host or cells: HEK293T; also purified Sf9 protein, p25-GFP transgenic mouse striatum, rat ischemic brain and neurons
Text: as §1, §2

[5] = test system: PKA; assay: Effect of monoclonal antibody on PKA activity; format: biochemical; details: FIG. 4
[6] = listed as anti-p25 monoclonal antibody

T2 sequence (Q15078 99-307 limits assumed): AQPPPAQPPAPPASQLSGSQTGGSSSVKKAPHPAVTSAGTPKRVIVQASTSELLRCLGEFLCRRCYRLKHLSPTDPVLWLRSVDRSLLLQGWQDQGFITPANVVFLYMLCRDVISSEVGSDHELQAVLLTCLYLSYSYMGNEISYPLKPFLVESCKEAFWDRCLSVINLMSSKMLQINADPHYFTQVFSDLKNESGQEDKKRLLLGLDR
T1 sequence (P61809 whole entry): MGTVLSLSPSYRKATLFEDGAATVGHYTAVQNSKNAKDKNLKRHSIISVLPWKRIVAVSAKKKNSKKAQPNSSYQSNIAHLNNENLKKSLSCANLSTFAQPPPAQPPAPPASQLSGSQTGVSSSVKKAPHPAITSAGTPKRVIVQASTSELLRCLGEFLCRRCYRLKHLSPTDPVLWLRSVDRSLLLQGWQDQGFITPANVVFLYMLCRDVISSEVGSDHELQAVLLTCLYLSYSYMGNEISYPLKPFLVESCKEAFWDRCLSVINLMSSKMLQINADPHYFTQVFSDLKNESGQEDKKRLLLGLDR
T3 sequence (P61810 99-307): as the sequence (Q15078 99-307 limits assumed) above, with G23V, V35I counted along it

B1: 1C4: monoclonal antibody binding p25 but not p35, produced by hybridoma cell line 1C4 (ATCC PTA-8555) (antibody, V domains shown)
VH: QIQLEESGPELRKPGETVRISCKASGYTFTTAGMQWVQKMPGTGLKWIGWINTHSGVPKYAGEFTGRFDFSLETSASTAYLQIVNLKNEDTATYFCARYGKFGEMDYWGQGTSVTVSS
VL: IVMTQSPASLAVSLGQRATISCRSSETVDSDGNSFMHWYQQKPGQSPKLLLYLASTLESGVPARFSGSGSRTDFTLTIDPVEADDAATYYCHQNNEDPTFGGGTKLEIKR
reactivity with p35 [1]: does not react with p35 at all
inhibition of Cdk5/p25 activity [2]: almost completely inhibits Cdk5 activity
inhibition of Cdk5/p25 activity [2, 6]: inhibits Cdk5/p25 activity
detection of p25 ([3]; immunoblot of lysates from GFP-p25 over-expressing mice, focal ischemia in brain slices and cultured neurons, listed as anti-p25 monoclonal antibody): detects transgenic p25-GFP; also recorded: strongly detects p25 generated in response to focal ischemia
staining of cells transfected with expression vectors ([3]; transfected cells, p25 vs p35 expression vector): only stains cells transfected with an expression vector for p25 but not p35
sensitivity of detection of p25 generated by MCAO [4]: greater sensitivity than a commercial p35/p25 Ab
effect on PKA activity [5]: no effect on PKA
effect on PKA activity [5, 6]: little or no effect on PKA activity
